According to US6710030B1, “Contortrostain (CN) and methods for its use in preventing metastasis and other conditions” (University of Southern California, priority 1993, dated 2004):
Entries after “also recorded” stand apart in the source; their conditions may differ. Like-named read-outs stand apart in the source and are kept apart here.

Columns and labels:
canine PRP = assay: ADP-induced platelet aggregation in canine PRP; format: cell-based; settings: 20 μM ADP
Method: (§1) Column fractions obtained during purification were assayed for activity using fresh human platelet rich plasma (PRP) prepared from blood obtained from human volunteers who had had no medication for at least two weeks. Blood (36 ml) was drawn into 4 ml of 0.1 M citrate and centrifuged at 150×g for 20 minutes. The supernatant, PRP, was removed and the remaining blood was centrifuged at 10,000 RPM to obtain platelet poor plasma (PPP). Platelet counts were adjusted to 250,000 platelets/μl using a Coulter counter. A Helena four channel aggregometer was used to monitor platelet aggregation. Inhibition of ADP-induced platelet aggregation was monitored at 37° C. by adding venom fractions one minute prior to the addition of ADP (10-20 μM final concentration). […] Rabbit and canine PRP was prepared by the same procedure and used in the studies described below.
(§2) CN inhibited ADP-induced platelet aggregation in human, canine, and rabbit PRPs (FIG. 6). Empty circles represent human platelet rich plasma, solid circles represent canine PRP, and empty triangles represent rabbit PRP. Varying concentration of CN were preincubated for one minute with PRP prior to the addition of ADP.

rabbit PRP = assay: ADP-induced platelet aggregation in rabbit PRP; format: cell-based; settings: 20 μM ADP
Method: as §1, §2

MDA-MB-435 tumor = assay: Orthotopic MDA-MB-435 breast cancer metastatic model in nude mice; format: in vivo
Method: A spontaneous (orthotopic) metastatic model of nude mice has been established by implantation of MDA-MB-435 cells (5×10^5 in 0.1 ml) in the mammary fat pads (mfp). Palpable tumors appeared by the 10th day post-implantation. Daily injections of CN into the tumor masses of each of the groups arc carried out, started at the 14th day post-implantation. By the 8th week post-implantation, tumors were removed. The animals were allowed to survive for 2 more weeks without CN administration. The animals were then sacrificed and lung metastases were carefully examined. […] The volumes of tumor masses (mean±S.D.) of control (dark bars), low-dosage (0.5 μg/day, gray bars), and high-dosage (5 μ/day, light gray bars) CN-treated group are shown. The seven clusters of bars from left to right represent the data of pre-injection (PI, 14th day post-implantation) and the 1st through 6th week of injection. Student t-tests were employed to test the significance of differences. *and** indicate P<0.05 and p<0.01, respectively.

MDA-MB-435 tumor on CAM = assay: MDA-MB-435 tumor induced angiogenesis on chick embryo chorioallantoic membrane (CAM); format: in vivo
Method: MDA-MB-435 tumor masses were inoculated on CAM of 10-day chick embryos. CN at various dosages were injected intravenously into CAM on day 2 post-inoculation. […] Chick embryo is immunodeficient, and thus allows the growth of implanted MDA-MB-435 tumor. The embryos are incubated at 37° C. with humidity at 60%. CN at various dosages was injected intravenously into CAM on day 2 post-inoculation. […] On the top (FIG. 16A) is the control embryo. The vessels are distributed in a convergent manner with the tumor mass in the center. In the middle (FIG. 16B) is the CAM treated with 20 μg of CN. On the bottom (FIG. 16C) is the CAM treated by 150 μg of CN.

MDA-MB-435 cells = assay: Phosphotyrosine immunoblot, MDA-MB-435 cells; format: cell-based, human
Method: Cell culture, preparation and stimulation—T24 cells were maintained in RPMI 1640 medium containing 5% fetal bovine serum, and MDA-MB-435 and 293 cells were maintained in Dulbecco's modified Eagle's medium with 10% serum at 37° C. in 5% CO2. Cells were washed with phosphate-buffered saline (PBS) and starved in the appropriate serum-free medium for 6 h at 37° C. Cells were detached by brief treatment with 0.05% trypsin/0.02% EDTA in PBS and collected by centrifugation, resuspended in soybean trypsin inhibitor (1 mg/ml in serum-free medium), and washed in 2% bovine serum albumin/serum-free medium. Cells were maintained in suspension for 1 h in 2% bovine serum albumin/serum-free medium at 37° C. with end-over-end agitation. Quiescent cells (3×10^6/ml) were treated with disintegrins or other reagents while in suspension, or were allowed to adhere to Matrigel (Becton Dickinson, Bedford, Mass.) diluted 1:100 with serum-free medium during treatment.
Lysate preparation and immunoprecipitation—Suspended and adherent cells were washed twice with cold PBS and lysed in cold lysis buffer (50 mM Tris, pH 8.0, 150 mM NaCl, 1% Nonidet P-40, 0.5% deoxycholate, 0.1% SDS, protease inhibitor cocktail, 1 mM sodium pyrophosphate, 1 mM sodium orthovanadate, 50 mM sodium fluoride). After 10-15 min incubation on ice, insoluble material was removed by centrifugation at 14,000 RPM in a microcentrifuge for 15 min. Supernatants were collected and total protein concentrations standardized by the BCA protein assay (Pierce, Rockford, Ill.). Immunoprecipitation was carried out by incubating whole cell lysates (200 μg total protein) with 1.25 μg anti-FAK or anti-CAS mAb 4-6 h at 4° C. followed by 20 μl protein G-agarose overnight at 4° C. Immunoprecipitates were washed 4 times in lysis buffer without inhibitors and dissociated by adding SDS-PAGE sample buffer and boiling 5 min. Whole cell lysates (30 μg total protein) or immunoprecipitates were resolved by 7.5% SDS-polyacrylamide gel electrophoresis and transferred to nitrocellulose membranes.
Immunoblotting—Membranes were blocked with 5% nonfat milk/Tris-buffered saline/0.1% Tween 20 (blocking buffer) 1 h at room temperature or overnight at 4° C. Primary antibody incubations were performed in blocking buffer for 1 h at room temperature. After washing in Tris-buffered saline/0.1% Tween 20, membranes were incubated with horseradish peroxidase-conjugated secondary antibody in blocking buffer 1 h at room temperature. Membranes were washed extensively. Inimunoblots were developed using Super Signar West Pico Chemiluminescent Substrate from Pierce. Densitometry was performed using UN-SCAN-IT™, software (Silk Scientific, Orem, Utah))

Solubility in water = format: physicochemical
Text: CN may be administered by a variety of heretofore known means suitable for delivery thereof into the blood stream in substantial amounts. Intravenous administration of CN in a suitable liquid vehicle or excipient is presently contemplated as the preferred route of administration. […] Alternatively, CN may be administered orally (in the form of tablets or capsules formulated with a suitable binder or excipient material, or in the form of aqueous or oily suspensions, solutions, emulsions, syrups or elixirs) or as a parenteral suspension. As is well known in the art, adjuvants such as local anesthetics, preservatives, buffering agents, lubricants, wetting agents, colorants, flavorings, fillers and diluents may suitably be included in any of these formulations.

[1] = system: human fibrosarcoma (HT-1080) cells; settings: cited from earlier work

B1: contortrostatin (protein)
chain: DAPANPCCDAATCKLTTGSQCADGLCCDQCKFMKEGTVCRRARGDDLDDYCNGISAGCPRNPFHA
IC50 of ADP-induced canine platelet aggregation (canine PRP): 1.8 µg/mL
IC50 of ADP-induced rabbit platelet aggregation (rabbit PRP): 17.3 µg/mL
# of nodules in lung (median) (MDA-MB-435 tumor; 5 μg/day): 4.5
Mean size of relapse tumor (MDA-MB-435 tumor; 5 μg/day): 48.7 ± 10.5 mm^3
In situ relapse (MDA-MB-435 tumor; 5 μg/day, animals with/total): 2/6
Metastasis incidence, Other Organs (MDA-MB-435 tumor; 5 μg/day, chest wall, mediastinum, diaphragm, pleurae): 2/6
growth of the tumor (tumor mass volume) (MDA-MB-435 tumor; daily local injection into tumor): substantially inhibited the growth rate of the tumor; also recorded: significantly smaller
inhibition of metastasis (MDA-MB-435 tumor; high dose CN group versus control): > 90%
mean weight of tumors (MDA-MB-435 tumor; high-dose CN (5 μg/day), P<0.05): significantly lower than control group
bleeding at the injection sites (MDA-MB-435 tumor; mouse, in vivo): Some bleeding at the injection sites
spontaneous hemorrhage (MDA-MB-435 tumor; mouse, in vivo): no spontaneous hemorrhage
toxicity in chronic experiment (MDA-MB-435 tumor; mouse, in vivo): not toxic
tumor mass on CAM (MDA-MB-435 tumor on CAM; 20 μg of CN): smaller than that on control CAM
tumor induced angiogenesis (vessels) (MDA-MB-435 tumor on CAM; 20 μg of CN intravenously): thinner and less dense than control
tumor mass on CAM (MDA-MB-435 tumor on CAM; 150 μg of CN): necrotic tumor mass with volume significantly smaller than control and low dose CN
tumor induced angiogenesis (vessels) (MDA-MB-435 tumor on CAM; 150 μg of CN intravenously): the vessels are even thinner and the convergent distribution pattern disappears completely
concentration giving maximal tyrosine phosphorylation (MDA-MB-435 cells; suspended cells, 10 min): 10 nM
lowest concentration increasing tyrosine phosphorylation of FAK and CAS (MDA-MB-435 cells; tumor cells, soluble contortrostatin): 1 nM
solubility (Solubility in water): soluble in water
Inhibition of HT1080 cell binding to fibronectin ([1]; CN at 1 μg/ml): 89%
Inhibition of HT1080 cell binding to fibronectin ([1]; CN at 5 μg/ml): 85%
